Data as given in publication PMC4993455 (PLoS ONE, 2016).

What was measured:
[1] = target: the molecule itself; assay: SEC; analytical gel filtration of nuclear fractions (100 μl) of HEK 293T cells overexpressing HA-PDRG1, FLAG-MATα1 or both on Superose 12 10/300 GL; fractions analysed by dot-blot
[2] = target: T1, recombinant methionine adenosyltransferase α1 (MATα1) (rat, UniProt P13444 1-397); assay: SEC; equimolar purified recombinant MATα1 or MATα2 and GST-PDRG1 incubated 1 hour at 4°C, then Biogel A column (1.5 x 90 cm) in 50 mM Tris/HCl pH 8, 10 mM MgSO4, 50 mM KCl at 4°C; both proteins detected in the pooled activity peaks by Coomassie staining and/or western blotting; settings: both partners purified
T1 construct: rat MATα1, pSSRL-T7N containing the rat Mat1a ORF; also called pSSRL-T7N; MATα1 homo-oligomers; source: E. coli BL21(DE3) Codon Plus; soluble extract (pull-down)
T1 sequence (P13444 whole entry): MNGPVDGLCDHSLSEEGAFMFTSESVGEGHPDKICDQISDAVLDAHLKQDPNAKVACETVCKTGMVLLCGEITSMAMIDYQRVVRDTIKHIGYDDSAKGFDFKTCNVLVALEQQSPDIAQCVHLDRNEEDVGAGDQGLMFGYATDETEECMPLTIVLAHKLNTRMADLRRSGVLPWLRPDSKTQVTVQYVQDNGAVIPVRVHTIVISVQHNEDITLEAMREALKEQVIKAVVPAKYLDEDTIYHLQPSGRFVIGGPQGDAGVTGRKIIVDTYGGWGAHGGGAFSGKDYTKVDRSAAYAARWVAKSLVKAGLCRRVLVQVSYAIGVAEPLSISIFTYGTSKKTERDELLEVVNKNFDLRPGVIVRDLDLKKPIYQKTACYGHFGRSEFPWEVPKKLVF

FLAG-MATα1, sequence (P13444 whole entry): as above

| Binder | stoichiometry N [1] | binding result [2] |
| --- | --- | --- |
| HA-PDRG1 (natural protein, residues between the HA tag and PDRG1; rat PDRG1, full ORF (402 bp); also called pHA-PDRG1; HA-tagged PDRG1; source: CHO, HEK 293T or COS-7 cells, transiently transfected; in total lysate, nuclear or cytosolic fractions; not shown: HA, N-terminal, kept) not shown | 6 |  |
| GST-PDRG1 (natural protein, 9 amino acid linker between GST and PDRG1; rat PDRG1, full ORF (402 bp) in pGEX-5X-1; also called pGEX-PDRG1; tagged-PDRG1; source: E. coli BL21(DE3) Codon Plus; soluble extract loaded on Glutathione-Sepharose (pull-down); purified on Glutathione-Sepharose 4B, eluted with 20 mM GSH (gel filtration, activity); not shown: GST, N-terminal, kept) not shown |  | binds |
| FLAG-MATα1 (enzyme, rat MATα1, pFLAG-MAT containing the rat Mat1a ORF; also called pFLAG-MAT; source: CHO, HEK 293T or COS-7 cells, transiently transfected; in total lysate, nuclear or cytosolic fractions) not shown | 4 |  |
